Reference: patent US20220324970A1 (Janssen / Centocor, published 2022)

T1: hpIgR_D3
T1 construct: HIS-tagged construct from HEK293 cells; also called human pIgR extracellular domain 3 (D3); hD3
T1 HIS-tagged domain construct: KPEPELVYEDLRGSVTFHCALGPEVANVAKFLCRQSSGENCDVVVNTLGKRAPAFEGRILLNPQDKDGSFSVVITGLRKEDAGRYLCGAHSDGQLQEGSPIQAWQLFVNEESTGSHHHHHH

T2: hpIgR_D2-D3
T2 construct: HIS-tagged construct from HEK293 cells; also called human pIgR extracellular domain 2-domain 3 (D2-D3); hD2-D3
T2 HIS-tagged domain construct: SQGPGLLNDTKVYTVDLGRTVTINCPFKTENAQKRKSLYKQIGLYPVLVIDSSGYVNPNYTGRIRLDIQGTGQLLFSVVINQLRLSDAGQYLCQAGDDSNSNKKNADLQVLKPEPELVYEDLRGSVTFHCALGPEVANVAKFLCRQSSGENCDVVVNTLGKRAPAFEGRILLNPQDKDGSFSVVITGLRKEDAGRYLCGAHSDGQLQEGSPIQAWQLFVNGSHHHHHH

B1: VHH3-linker-mono-Fc protein (Fc fusion)
chain: QLQLVESGGGLVQPGGSLRLSCAASGSIFSINVMGWYRQAPGKQRELVARINGGGITHYAESVKGRFTISRDNAKNTVYLQMNSLKPEDTAAYYCKADVFGSSGYVETYWGQGTQVTVSSEPKTPKPQPQPQLQPQPNPTTESKSPKSPAPELLGGPSVFLFPPKPKDTLMISRTPEVTCVVVDVSHEDPEVKFNWYVDGVEVHNAKTKPREEQYNSTYRVVSVLTVLHQDWLNGKEYKCKVSNKALPAPIEKTISKAKGQPREPQVYTKPPSREEMTKNQVSLSCLVKGFYPSDIAVEWESNGQPENNYKTTVPVLDSDGSFRLASYLTVDKSRWQQGNVFSCSVMHEALHNHYTQKSLSLSPGK
notes: made in CHO cells; also called VHH3-mono-Fc; hpIgR_021
B2: VHH2-linker-mono-Fc protein (Fc fusion)
chain: EVQVVESGGGLVQAGGSLKLACAAPGLTFSSYRMGWFRQAPGQEREFVAAIDWNGRGTYYRYYADSVKGRSTISRDNAKNTVYLQMNSLKPEDTAVYYCAATTVLTDPRVLNEYATWGQGTQVTVSSEPKTPKPQPQPQLQPQPNPTTESKSPKSPAPELLGGPSVFLFPPKPKDTLMISRTPEVTCVVVDVSHEDPEVKFNWYVDGVEVHNAKTKPREEQYNSTYRVVSVLTVLHQDWLNGKEYKCKVSNKALPAPIEKTISKAKGQPREPQVYTKPPSREEMTKNQVSLSCLVKGFYPSDIAVEWESNGQPENNYKTTVPVLDSDGSFRLASYLTVDKSRWQQGNVFSCSVMHEALHNHYTQKSLSLSPGK
notes: also called VHH2-mono-Fc; mpIgR_338

Experiments:
[1] = target: T3, human pIgR, full-length, on cells (human, UniProt P01833 19-764); assay: flow cytometry on MDCK-hpIgR cells
T3 construct: whole, on cells; Used for the flow cytometry EC50 values (MDCK-hpIgR) and for the transcytosis read-outs; also called hpIgR; cell-surface hpIgR
T3 sequence (P01833 19-764): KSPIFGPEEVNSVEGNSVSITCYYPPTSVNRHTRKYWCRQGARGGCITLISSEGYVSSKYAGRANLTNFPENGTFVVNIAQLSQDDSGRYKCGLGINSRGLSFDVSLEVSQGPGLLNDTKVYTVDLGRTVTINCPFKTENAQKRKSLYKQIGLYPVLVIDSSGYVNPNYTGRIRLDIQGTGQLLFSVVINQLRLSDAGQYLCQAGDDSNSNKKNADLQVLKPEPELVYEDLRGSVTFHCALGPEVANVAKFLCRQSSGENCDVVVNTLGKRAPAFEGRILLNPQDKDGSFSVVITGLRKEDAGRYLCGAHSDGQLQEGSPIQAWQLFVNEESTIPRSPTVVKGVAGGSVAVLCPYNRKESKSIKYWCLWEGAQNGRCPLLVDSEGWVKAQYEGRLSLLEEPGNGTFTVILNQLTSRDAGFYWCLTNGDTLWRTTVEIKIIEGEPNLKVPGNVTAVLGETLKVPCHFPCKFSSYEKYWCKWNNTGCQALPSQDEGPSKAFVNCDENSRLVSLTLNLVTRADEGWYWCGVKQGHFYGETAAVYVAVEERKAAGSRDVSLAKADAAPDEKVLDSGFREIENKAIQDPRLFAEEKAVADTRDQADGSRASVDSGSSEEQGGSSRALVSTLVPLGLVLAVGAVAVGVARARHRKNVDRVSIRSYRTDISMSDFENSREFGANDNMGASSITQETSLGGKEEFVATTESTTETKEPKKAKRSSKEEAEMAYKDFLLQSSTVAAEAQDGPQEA
Experimental: (§1) Flow Cytometry was performed as follows. To test whether VHH-mono-Fc molecules recognize cell-surface hpIgR, Madin-Darby canine kidney (MDCK) cells engineered to express full-length hpIgR were used. Cells were cultured in Dulbecco's modified Eagle's medium containing 10% fetal calf serum at 37° C. with 5% CO₂. Cells were split into equal fractions (≈70,000 cells) and incubated with increasing concentrations of VHH-mono-Fc molecules for 30 min at 4 C. […] Cells were washed twice with cold staining buffer, resuspended in running buffer and analyzed with an iQue Screener (IntelliCyt Corporation). Binding was assessed by RL1 (A647) Geomeans from the live cell population and EC50 was calculated by fitting log VHH concentration versus MFI in Prism (Graphpad).

[2] = target: T4, human pIgR extracellular domain (ECD) (human, UniProt P01833 19-638); assay: BLI; summary table, repeats Table 1
T4 construct: also called hpIgR ECD
Target sequence in this assay (P01833 other isoform, or with tags, fused parts or gaps): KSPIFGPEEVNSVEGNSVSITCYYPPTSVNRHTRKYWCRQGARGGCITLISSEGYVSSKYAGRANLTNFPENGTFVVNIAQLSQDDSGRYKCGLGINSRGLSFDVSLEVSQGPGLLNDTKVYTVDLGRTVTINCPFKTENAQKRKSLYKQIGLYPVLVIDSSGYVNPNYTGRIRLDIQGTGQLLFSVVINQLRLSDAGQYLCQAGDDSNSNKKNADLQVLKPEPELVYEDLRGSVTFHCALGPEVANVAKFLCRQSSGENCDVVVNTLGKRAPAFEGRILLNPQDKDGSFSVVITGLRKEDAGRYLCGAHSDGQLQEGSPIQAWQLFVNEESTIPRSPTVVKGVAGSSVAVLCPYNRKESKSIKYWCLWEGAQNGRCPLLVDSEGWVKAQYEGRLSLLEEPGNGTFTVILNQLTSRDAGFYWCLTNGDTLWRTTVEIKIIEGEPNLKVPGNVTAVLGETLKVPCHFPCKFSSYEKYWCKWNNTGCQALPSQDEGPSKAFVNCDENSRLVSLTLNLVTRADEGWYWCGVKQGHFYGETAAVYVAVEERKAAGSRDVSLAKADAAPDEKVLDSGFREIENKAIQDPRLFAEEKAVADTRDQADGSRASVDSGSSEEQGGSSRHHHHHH

[3] = target: T4, human pIgR extracellular domain (ECD); assay: BLI, relative to full-length hpIgR ECD
Target sequence in this assay (P01833 other isoform, or with tags, fused parts or gaps): as above
Experimental: (§2) Bio-layer Interferometry was performed as follows. […] Data were collected with Octet Data Acquisition version 7.1.0.87 (ForteBio) and analyzed using Octet Data Analysis version 7.1 (ForteBio). To measure binding kinetics between VHH-mono-Fc molecules and HIS-tagged pIgR proteins, VHH-mono-Fc was immobilized on amine-reactive generation-2 (ARG2) biosensors according to manufacturer's instructions and increasing concentrations of pIgR proteins were exposed to sensor-immobilized VHH. In some cases, HIS-tagged pIgR proteins were immobilized on anti-HIS biosensors and exposed to increasing concentrations of VHH-mono-Fc molecules. Association and dissociation rates were measured by the shift in wavelength (nm). […] All reactions were performed at 25° C. in PBS.
(§3) (Full-length hpIgR ECD was purchased from R&D Systems.) The five constructs (D1-D2, D1, D1_tCDR1, D1_tCDR2, D1_tCDR3) were expressed and purified from HEK293 cells using immobilized metal ion affinity chromatography. Three hpIgR domain-1 CDR mutants (D1_tCDR1, D1_tCDR2, D1_tCDR3) contain respective teleost fish CDR on a hpIgR domain-1 framework. His-tagged pIgR constructs were immobilized on anti-HIS biosensors and binding of VHH-mono-Fc molecules to pIgR constructs were measured by bio-layer interferometry.

[4] = target: T5, human pIgR extracellular domain 1 (D1) (human, UniProt P01833 19-127); assay: BLI, relative to full-length hpIgR ECD
T5 construct: HIS-tagged construct made in HEK293 cells; also called hpIgR domain-1
Target sequence in this assay (P01833 other isoform, or with tags, fused parts or gaps limits assumed): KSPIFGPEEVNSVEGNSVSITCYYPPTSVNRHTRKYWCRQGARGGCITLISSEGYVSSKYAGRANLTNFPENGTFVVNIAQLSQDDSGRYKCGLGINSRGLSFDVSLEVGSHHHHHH
Experimental: as §2, §3

[5] = target: T6, human pIgR extracellular domain 1-domain 2 (D1-D2) (human, UniProt P01833 19-240); assay: BLI, relative to full-length hpIgR ECD
T6 construct: HIS-tagged construct made in HEK293 cells
Target sequence in this assay (P01833 other isoform, or with tags, fused parts or gaps limits assumed): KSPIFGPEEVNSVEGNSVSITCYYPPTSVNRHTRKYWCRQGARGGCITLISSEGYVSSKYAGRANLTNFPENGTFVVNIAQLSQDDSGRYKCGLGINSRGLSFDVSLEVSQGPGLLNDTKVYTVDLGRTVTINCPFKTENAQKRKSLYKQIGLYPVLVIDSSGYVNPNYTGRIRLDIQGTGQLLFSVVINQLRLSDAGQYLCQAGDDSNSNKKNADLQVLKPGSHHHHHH
Experimental: as §2, §3

[6] = target: T7, hpIgR domain-1 with teleost fish CDR1 (hD1 tCDR1) (human, UniProt P01833 19-127, limits assumed); assay: BLI, relative to full-length hpIgR ECD
T7 construct: CDR-swapped hpIgR domain-1 mutant, HIS-tagged, made in HEK293 cells; not shown: HIS tag
Target sequence in this assay (P01833 other isoform, or with tags, fused parts or gaps limits assumed): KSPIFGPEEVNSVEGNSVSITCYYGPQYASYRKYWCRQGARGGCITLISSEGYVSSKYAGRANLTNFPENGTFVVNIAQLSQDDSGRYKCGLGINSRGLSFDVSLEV

[7] = target: T8, hpIgR domain-1 with teleost fish CDR3 (hD1 tCDR3) (human, UniProt P01833 19-127, limits assumed); assay: BLI, relative to full-length hpIgR ECD
T8 construct: CDR-swapped hpIgR domain-1 mutant, HIS-tagged, made in HEK293 cells; not shown: HIS tag
Target sequence in this assay (P01833 other isoform, or with tags, fused parts or gaps limits assumed): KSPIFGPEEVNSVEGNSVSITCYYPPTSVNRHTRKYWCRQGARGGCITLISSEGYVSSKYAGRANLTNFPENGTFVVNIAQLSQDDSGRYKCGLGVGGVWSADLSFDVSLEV

[8] = target: T4, human pIgR extracellular domain (ECD); assay: ECL (MSD), hpIgR-ECD coated, anti-Fc detection
Experimental: To check whether VHH recognizes a buried epitope on pIgR, EC₅₀ values were measured for VHH-mono-Fc molecules binding to hpIgR-ECD protein by electrochemiluminescence using two different detection antibodies, an anti-Fc antibody and an anti-VHH antibody. pIgR ECD (10 μg/ml in PBS) was coated on high-bind MSD plates for 2 hours at RT with 1000 rpm, incubated with blocking buffer for 1 hour at RT, incubated with VHH-mono-Fc molecules (increasing concentrations in PBS) for 2 hours at RT with 1000 rpm, washed 3× with PBT, incubated with ruthenylated secondary antibody (2 μg/ml in PBS) for 1 hour at RT with 1000 rpm, washed 3× with PBT and read plates in 40 ul reading buffer using the MSD imager. EC50 was calculated by fitting log VHH concentration versus log ECLU in Prism (Graphpad). The increase in EC₅₀ (>50-fold) due to anti-VHH detection was used as a measure to determine whether VHH recognized buried epitope on pIgR.

[9] = target: T5, human pIgR extracellular domain 1 (D1); assay: ratio of the second to the first EC50 column
[10] = target: T6, human pIgR extracellular domain …; assay: ratio of the second to the first EC50 column
[11] = target: T5, human pIgR extracellular domain 1 (D1); assay: BLI, HIS-tagged pIgR construct on anti-HIS biosensors
Experimental: as §2, §3

[12] = target: T6, human pIgR extracellular domain …; assay: as above
Experimental: as §2, §3

[13] = target: T7, hpIgR domain-1 with teleost fish CDR1 …; assay: as above
Experimental: as §2, §3

[14] = target: T8, hpIgR domain-1 with teleost fish CDR3 …; assay: as above
Experimental: as §2, §3

[15] = target: T3, human pIgR, full-length, on cells; assay: flow cytometry on MDCK-hpIgR cells; summary table, repeats Table 1
Experimental: as §1

[16] = target: T5, human pIgR extracellular domain 1 (D1); assay: ECL (MSD), Log ECLU against Log [VHH] nM, anti-Fc detection (first EC50 column)
[17] = target: T6, human pIgR extracellular domain …; assay: as above
hpIgR_D3 = target: T1, hpIgR_D3; assay: ECL (MSD) heat map, HIS-tagged construct captured via anti-HIS, anti-human-Fc detection;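 note: VHH-mono-Fc molecules tested at 100 µg/ml for 2 h on captured His-tagged pIgR constructs (10 µg/ml), read-out as electrochemiluminescence units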
[18] = target: T9, human pIgR extracellular domain 2 (D2) (human, UniProt P01833 128-242); assay: as above
T9 construct: HIS-tagged construct made in HEK293 cells; also called hpIgR domain 2

[19] = target: T10, human pIgR extracellular domain 5 (D5) (human, UniProt P01833 460-565); assay: as above
T10 construct: HIS-tagged construct made in HEK293 cells; also called hpIgR domain 5
T10 sequence (P01833 other isoform, or with tags, fused parts or gaps limits assumed): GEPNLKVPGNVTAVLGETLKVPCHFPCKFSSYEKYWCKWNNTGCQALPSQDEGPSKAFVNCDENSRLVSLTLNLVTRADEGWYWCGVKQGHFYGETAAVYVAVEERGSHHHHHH

hpIgR_D2-D3 = target: T2, hpIgR_D2-D3; assay: as above
[20] = target: T6, human pIgR extracellular domain …; assay: ECL (MSD); headed 'Anti-Fc' on the sheet, but its ECD values are the anti-VHH values of Table 2, so anti-VHH detection

Row | Binder | EC50 [1] [nM] | Kd [2] [nM] | Fold change in KD [3] [fold] | Fold change in KD [4] [fold] | Fold change in KD [5] [fold] | Fold change in KD [6] [fold] | Fold change in KD [7] [fold] | EC50 [8] [nM] | Fold change [9] | Fold change [10] | Kd [11] [nM] | Kd [12] [nM] | Kd [13] [nM] | Kd [14] [nM] | EC50 [15] [nM] | EC50 [16] [nM] | EC50 [17] [nM] | binding result (hpIgR_D3) | binding result [18] | binding result [19] | further results
1 | B1 | 6.4 | 5 | 1 | 0.8 | 1.3 | 7.7 | 0.8 | 0.5 | 5.7 | 11.9 | 7.7 | 13.3 | 77 | 7.5 | 6.4 | 3.1 | 1.2 | no binding (tested: 100 ug/ml (single concentration)) | no binding (tested: 100 ug/ml (single concentration)) | no binding (tested: 100 ug/ml (single concentration)) | binding result (hpIgR_D2-D3): no binding (tested: 100 ug/ml (single concentration)); EC50 [20]: 13.7 nM
2 | B2 | 6.3 | 21 | 1 | 0.7 | 1 | 1 | 0.7 | 4.2 | 1.2 | 1.2 | 15.5 | 23 | 21.3 | 14.9 | 6.3 | 6.8 | 1.5 | no binding (tested: 100 ug/ml (single concentration)) | no binding (tested: 100 ug/ml (single concentration)) | no binding (tested: 100 ug/ml (single concentration)) | binding result (hpIgR_D2-D3): no binding (tested: 100 ug/ml (single concentration)); EC50 [20]: 1.8 nM
